Consider 6 molecules from PMC10249358, “Elucidation of Short Linear Motif-Based Interactions of the FERM Domains of Ezrin, Radixin, Moesin, and Merlin” (Biochemistry, 2023).

For this experiment, the target named is moesin FERM domain, P26038. The experiment can be described thus: FP. The settings on record: modification not given.
Sequence of moesin FERM domain, P26038 (P26038 2-295): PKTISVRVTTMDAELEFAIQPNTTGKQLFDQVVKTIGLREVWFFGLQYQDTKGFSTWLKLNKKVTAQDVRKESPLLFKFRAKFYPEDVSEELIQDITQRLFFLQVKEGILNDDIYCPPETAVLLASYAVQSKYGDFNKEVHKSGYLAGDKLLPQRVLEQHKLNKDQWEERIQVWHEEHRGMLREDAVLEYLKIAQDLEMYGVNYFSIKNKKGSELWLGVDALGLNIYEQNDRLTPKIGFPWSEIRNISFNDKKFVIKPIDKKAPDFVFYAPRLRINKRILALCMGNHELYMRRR

As to LEFADFYDFRSSAPDH, the Kd was 2800 nM. That is a single-digit micromolar value.

The molecule LEAADFYDFRSSYPDH had a Kd of 2300 nM.

LEFADAYDFRSSYPDH: the Kd was found to be 85000 nM.

Regarding TNGAYSVNTFKEHHST, the dissociation constant Kd stood at 110 nM.

In turn, LEFADFYAFRSSYPDH registered an equilibrium dissociation constant (Kd) of 50000 nM.

On to TNGYYSVNTFKEHHST, for which the Kd came to 100 nM.
